Test results published in article doi:10.1101/2024.03.04.583282v1.

How the values were obtained:
Conditions in all cases: acCoA co-substrate, 50 mM Tris-HCl pH 8.5, 150 mM NaCl, 25 °C
purified protein [1] = substrate: NCCCC[C@H](N)C(=O)O; assay: purified protein
purified protein [2] = substrate: NCCCN; assay: purified protein
[3] = substrate: NCCSC[C@H](N)C(=O)O; assay: DTNB acetyltransferase assay; type: biochemical, Arabidopsis thaliana
[4] = substrate: NCCCCN; assay: DTNB acetyltransferase assay; type: biochemical, Arabidopsis thaliana
[5] = substrate: NCCCNCCCCNCCCN; assay: DTNB acetyltransferase assay; type: biochemical, Arabidopsis thaliana
purified protein [6] = substrate: NCCC[C@H](N)C(=O)O; assay: purified protein

B1: NATA2Δ (Arabidopsis thaliana) (protein)
chain: MFSRIRLATPSDVPFIHKLIHQMAVFERLTHLFSATESGLASTLFTSRPFQSFTVFLLEVSRSPFPATITSSPSPDFTPFFKTHNLDLPIDDPESYNFSPDMLNDVVVAGFVLFFPNYSSFLSKPGFYIEDIFVREPYRRKGFGSMLLTAVAKQAVKMGYGRVEWVVLDWNVNAIKFYEQMGAQILQEWRVCRLTGDALEAFDQVNI
For B1, the Km (purified protein [1]) was 9480 ± 2530 µM, the kcat (purified protein [1]) was 0.45 ± 0.10 s⁻¹ and the Km (purified protein [2]) was 370 ± 70 µM. For the same protein, the kcat (purified protein [2]) was 1.46 ± 0.07 s⁻¹, the Km [3] was 330 ± 80 µM and the kcat [3] was 2.20 ± 0.10 s⁻¹. The Km [4] was 2290 ± 480 µM, the kcat [4] was 1.04 ± 0.07 s⁻¹ and the Km [5] was 1620 ± 350 µM. It also gave a kcat [5] of 1.49 ± 0.08 s⁻¹.

B2: NATA1Δ (Arabidopsis thaliana) (protein)
chain: TGHRMFSRIRLATPTDVPFIHKLIHQMAVFERLTHLFVATESGLASTLFNSRPFQAVTVFLLEISPSPFPTTHDASSPDFTPFLETHKVDLPIEDPDREKFLPDKLNDVVVAGFVLFFPNYPSFLAKQGFYIEDIFMREPYRRKGFGKLLLTAVAKQAVKLGVGRVEWIVIDWNVNAINFYEQMGAQVFKEWRLCRLTGDALQAIDKLNI
Work on B2 yielded a Km (purified protein [1]) of 12700 ± 3520 µM, a kcat (purified protein [1]) of 0.58 ± 0.09 s⁻¹ and a Km (purified protein [6]) of 4040 ± 820 µM. It also gave a kcat (purified protein [6]) of 0.64 ± 0.05 s⁻¹, a Km (purified protein [2]) of 440 ± 120 µM and a kcat (purified protein [2]) of 1.59 ± 0.08 s⁻¹. For the same protein, the Km [3] was 540 ± 130 µM, the kcat [3] was 2.04 ± 0.20 s⁻¹ and the Km [4] was 1900 ± 420 µM. It also gave a kcat [4] of 1.11 ± 0.12 s⁻¹, a Km [5] of 2260 ± 500 µM and a kcat [5] of 1.56 ± 0.10 s⁻¹.
